Measured values: the supplement of paper PMC10567573
± gives the standard deviation.

Test: protein stability index of a GFP-peptide fusion (GPS, HEK-293T) (PSI 1-6); higher = more stable
[1] = treatment: DMSO, c terminus: a fixed tail appended
[2] = treatment: MLN4924 1 uM, 8 h, c terminus: a fixed tail appended
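Also: 24-mer peptide tiles fused after GFP, lentivirally expressed, FACS-sorted into six equal bins by GFP/DsRed ratio, decoded by Illumina sequencing, PSI is the read-weighted mean bin number.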

Sequence	protein stability index [1]	protein stability index [2]	protein stability index (treatment: DMSO, c terminus: native)	protein stability index (treatment: MLN4924 1 uM, 8 h, c terminus: native)
LYQRAPRNIHRHVILSEIKEAVAA [TCF25]	2.75 ± 0.34	2.7 ± 0.25		
MASRKTKKKEGGALRAQRASSNVF [MYL5]	4.13 ± 0.15	4.05 ± 0.25		
MATLNRTAAGLMHTFNAHAATDIT [SEPHS2]	2.95 ± 0.053	3.01 ± 0.19		
MAVPPGHGPFSGFPGPQEHTQVLP [DYRK1B]	3.75 ± 0.29	3.66 ± 0.065		
MCTKMEQPFYHDDSYTATGYGRAP [JUNB]	3.19 ± 0.19	3.25 ± 0.24		
MEACMDGHVEVARLLLDSGAQVNM [ANKRD17]	2.98 ± 0.32	3.06 ± 0.28		
MEEMSGESVVSSAVPAAATRTTSF [KCTD10]	4.76 ± 0.28	4.82 ± 0.49		
MEQFCWPHLRSFCETCVGSWSIQM	2.82 ± 0.44	2.49 ± 0.73		
MFLEISSYYDPGRLICDFPFDGLL [VPS39]		3.39 ± 1.3		
MGKRYFCDYCDRSFQDNLHNRKKH [ZMAT5]	3.03 ± 0.33	3.42 ± 0.34		
MGQCRSANAEDAQEFSDVERAIET [S100A14]	4.99 ± 0.32	5.15 ± 0.2		
MGSQHSAAARPSSCRRKQEDDRDG [TMEM106C]	5.22 ± 0.15	5.4 ± 0.15		
MHRLGEPQARMREENMERIGEEVR [BEX1]	5.14 ± 0.13	5.2 ± 0.21		
MKFAQVFGCFFYVYYIFERLCAPL [SOAT1]	2.89 ± 0.54	2.87 ± 0.51		
MKYTSEKFLEICKLSGFMSKLVPA [TPRG1]	3.05 ± 1	2.56 ± 0.45		
MMSLTKLADKELVHMISWAKKIPG [ESR2]	2.17 ± 0.19	2.16 ± 0.12		
MNRSIPVEVDESEPYPSQLLKPIP [TRAF3IP2]	4.44 ± 0.19	4.45 ± 0.34		
MNYRRLGGGVGVIKMTHCESHIW [KLHL20]			2.75 ± 0.32	2.34 ± 0.31
MPDYMILQELKKLKNSNYESIQQT [PPTC7]	2.5 ± 0.41	2.93 ± 0.39		
MPRAPKRQRCMPEEDLQSQSETQG [MAGEA10]	5.02 ± 0.42	5.05 ± 0.12		
MQVDKKRVYLATDDPSLLKEAKTK [FUT8]	4.06 ± 0.21	3.92 ± 0.32		
MQVNPISKRMGPMTVVRMDASVQP [RHOBTB1]	3.48 ± 0.19	3.43 ± 0.2		
MRQRISRVEESALRALREKLFAHS [PPEF2]	2.72 ± 0.24	2.71 ± 0.33		

Sequence	protein stability index [1]	protein stability index [2]	protein stability index (treatment: DMSO, c terminus: native)	protein stability index (treatment: MLN4924 1 uM, 8 h, c terminus: native)
MSDKYHDSDEATAARLLFNMAGVT [DCTD]	3.53 ± 0.25	3.54 ± 0.36		
MSPSLQEGAQLGENKPSTCSFSIE [HESX1]	4.95 ± 0.3	5.07 ± 0.18		
MSTGPIAESWCYTQVKVVKFSYMW [SPOPL]	2.41 ± 0.08	3.35 ± 1.5		
MSTIGSFEGFQAVSLKQEGDDQPS [TPRG1]	5.22 ± 0.082	5.22 ± 0.078		
MTRNDVLTGLQLKLGPALKIYEYH [SAMD13]	2.24 ± 0.42	2.22 ± 0.3		
MTTALQGQRLAVCVPAHPPPCAWA [CTBP1-DT]	2.43 ± 0.2	2.56 ± 0.14		
MVEADRPGKLFIGGLNTETNEKAL [RBMX]	4.75 ± 0.096	4.39 ± 0.48		
MVGLILGPFGVNHGVELHSDVIEY [PCMTD2]	3 ± 1.1	2.82 ± 0.64		
MVLLIMKLDQLDQDIENALSTSSS [DLC1]	2.69 ± 0.58	2.49 ± 0.45		
MVSNPVHGLPFLPGTSFKDSTKTA [EFHC1]	3.87 ± 0.24	3.97 ± 0.25		
MWDSKKIGLRQHHCRKCGKAVCGK [WDFY2]	3.31 ± 0.15	3.58 ± 0.72		
MYTPAYGDFDFDEVKFPNASDMFR [MYORG]	3.1 ± 0.3	3.16 ± 0.26		
NAANRTGYVPSNYVERKNSLKKGS [NCK2]	4.33 ± 0.3	4.45 ± 0.18		
NADGSYLCQCHEGFALNPDKKTCT [MATN2]	4.06 ± 0.14	4.2 ± 0.29		
NAKKLSMYGVDLHHAKDSEGVEIM [EPB41L3]	3.66 ± 0.8	3.61 ± 0.72		
NDAYGPPSNFLEIDVSNPQTVGVG [SNX3]	4.68 ± 0.35	4.59 ± 0.08		
NEEETPSCMASLWTAPLVMRTTNL [CDC25A]	3.22 ± 0.18	3.3 ± 0.11		
NEVLSSDILPRWAIIGWLLTTCTS [INTS3]	2.99 ± 0.82	2.91 ± 0.49		
NFGEFKCSDSDKKCHLWTAMDLGF [CLCN6]	2.19 ± 0.32	2.34 ± 0.46		
NGDGAFLHDNHEQMPTEIEFPESR [ZNF649]	5.31 ± 0.36	5.19 ± 0.45		
NGNRRRRKLRKTVNGDGSRENGNN [PHTF1]	4.93 ± 0.43	5.12 ± 0.19		
NGVLGLSRLLFFLLGFLRIRVRGQ [LPCAT4]	2.2 ± 0.34	2.44 ± 0.25		
